# Experiments:
# [1] = molecular target: p34^cdc2 cell cycle regulatory kinase (Homo sapiens (Human)) (UniProt P06493); test: Western blot densitometry of p34^cdc2 bound to p107 30mer-sepharose against immunoprecipitated p34^cdc2
# [2] = molecular target: p34^cdc2 cell cycle regulatory kinase (Homo sapiens (Human)) (UniProt P06493)
# [3] = molecular target: p34^cdc2 cell cycle regulatory kinase (Homo sapiens (Human)) (UniProt P06493); test: IC50 column of Table 1 (ELISA based competition, competitor plate-bound p107 30mer)
"amount of p34^cdc2 associated, relative to that within the immune complexes [1] [times]",histone H1 kinase specific activity of p34^cdc2 bound to p107 30mer-sepharose [2] [%],Substance,IC50 [3] [µM]
50,1.4,"p107 30 amino acid peptide (residues 692-721 of p107, encompassing alpha-helix II)",
,,p107 NC5mer pentapeptide (CAFYI),13

# Source: US5625031
